Measurements as given in patent US20170182124A1, “FGF21 Derivatives and Uses Thereof” (Novo Nordisk A/S, priority 2014, published 2017).
Where two headings read alike, the source gives them in different places. Marks after values point to notes of the source that are not given here.

Tests used:
[1] = target: FGF receptor/BKL complex; test: FGF receptor potency in an Erk phosphorylation assay in HEK293 overexpressing human BKL; type: cell-based; conditions: HEK293/BKL cells, pERK after 12 minutes
Summary of the method: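 pERK after 12 min analogue exposure at 37° C. was quantified by AlphaScreen SureFire in lysates of beta-klotho-transfected HEK293 cells. Assay medium was DMEM with 0.02% Tween20, run both without albumin and with 0.1% final HSA to probe albumin binding. Cells were starved 2 h in basal medium first. Absolute EC50 reported.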

[2] = Body weight reduction in lean mice; type: in vivo, lean C57BL mice; conditions: change from baseline day 1 to 7
Method: In order to determine the in vivo potency of the FGF21 derivatives the effect on body weight was studied in lean C57BL mice after subcutaneous (s.c.) administration. It has previously been shown that the weight loss induced by FGF21 in lean mice is predictive of the effect in obese mice and therefore lean mice are considered a good screening model.
The compounds were administered s.c. 1 mg/kg either once (QD) or twice (BID) daily in 10 mM phosphate, 2% (w/vol) glycerol, 500ppm (=0.05%) polysorbate 80, pH=8.15, (2 ml/kg) for 7 days (n=7-8). The respective vehicle treated groups (control) were treated with 10 mM phosphate, 2% (w/vol) glycerol, 500ppm (=0.05%) polysorbate 80, pH=8.15, (2 ml/kg) s.c. twice daily for 7 days (n=6-8). Body weight was measured before dosing and again after 7 days treatment.

[3] = target: 3T3-L1 adipocytes (Mus musculus, UniProt P16092+Q99N32); test: Glucose uptake in 3T3-L1 adipocytes; type: cell-based; conditions: stimulated 20 hours, 3H-deoxy-glucose
Method: The C-terminal modified analogues were tested for their ability to increase glucose uptake in 3T3-L1 mouse adipocytes. The following assay was used for determining the biological activity, or potency, of FGF21 analogues and derivatives of the invention.
The in vitro potency may also be determined in an assay with mouse 3T3-L1 adipocytes by testing the FGF21 analogues and derivatives for their ability to increase glucose uptake into adipocytes. Differentiated 3T3-L1 adipocytes endogenously express FGFR1c and BKL. The 3T3-L1 cells are unresponsive to FGF21 until after differentiated as differentiation lead to expression of the co-receptor BKL. Activation of the FGFR1 receptor/BKL complex increase the expression of glucose transporter 1 (GLUT1) and therefore FGF21 agonists will lead to an increased amount of glucose taken into the adipocytes in a dose responsive manner.
Mouse 3T3-L1 fibroblasts (e.g. available from ATCC, catalogue no. CL-173) were maintained in basal medium (DMEM (4500 mg/I Glucose) with 10% Fetal Bovine Serum (FBS) and 1% Penicillin/Streptomycin). The cells are not allowed to reach confluence and should be passed (transferred to new vials) before reaching approx. 60% of confluency (by visual inspection).
For the glucose uptake assay, cells were 15.000 cells/well in a 96 well plate (BIOCOAT), and when they reached confluency (high density, with a view to have differentiated adipose cells made), the medium was changed from basal medium to basal medium containing Troglitazone, IBMX, Dexamethasone (commercially available from, e.g., Sigma) and human insulin (commercially available from, e.g., Novo Nordisk A/S).
The cells were used 7-9, days after initiation of differentiation. The cells were stimulated with increasing concentrations (0-300 nM) of the FGF21 analogues or derivatives of the invention for 20 hours in basal medium. Before addition of 3H-deoxy-glucose (in what follows: the tracer) the cells were washed in warm (approximately 37° C.) assay buffer (PBS with 1 mM MgCl2 and 2 mM CaCl2), HEPES and 0.1% Human serum albumin) and the cells were incubated with the tracer for 1 hour. This incubation was terminated by washing twice in ice cold assay buffer. The cells were lysed with Triton X-100 and lysates transferred to a 96 wells plate, microscint-40 (commercially available from, e.g., Perkin Elmer) was added and amount of tracer counted in a TOP-counter (e.g. a Packard top-counter from Perkin Elmer). The EC50 and Emax of the FGF21 compound in question were calculated. The results which are shown in tables 4-5 below indicate the EC50 (potency) and Emax (efficacy) of the FGF21 analogues and derivatives, respectively.

[4] = Pharmacokinetic study in mice (i.v.); conditions: terminal half-life, single intravenous dose of 20 mg/kg, lean C57bl mice
Method: This was done in a pharmacokinetic (PK) study, where the terminal half-life of the analogue in question was determined. By terminal half-life is meant the time it takes to halve a certain plasma concentration in the terminal elimination phase.
The pharmacokinetic profile of FGF21 analogues was tested in normal lean C57b1 mice, n =2-3 (approximately 30 grams). FGF21 compounds were dosed as a single intravenous dose of 20 mg/kg (approximately 5 ml/kg).
The plasma levels of the FGF21 compounds were determined using Fibroblast Growth Factor-21 Human ELISA (available from BioVendor, catalogue no. RD191108200R). The PC based software, WnNonLin version 6.3 from Pharsight Corportion, Cary N.C., was used for the pharmacokinetic calculation.

[5] = Pharmacokinetic study in mini pigs (i.v.); conditions: terminal half-life, female Gottingen mini pigs
Method: The purpose of this study was to determine the protraction in vivo of the FGF21 derivatives after i.v. administration to mini pigs and mice, i.e. the prolongation of their time in the body and thereby their time of action. This was done in a pharmacokinetic (PK) study, where the terminal half-life of the analogue in question was determined. By terminal half-life is meant the time it takes to halve a certain plasma concentration in the terminal elimination phase.
Female Gottingen mini pigs were obtained from Ellegaard Gottingen Minipigs (Dalmose, Denmark) approximately 7-14 months of age and weighing approximately 16-35 kg were used in the studies. The mini pigs were housed either individually (pigs with permanent catheters) or in a group and fed restrictedly once or twice daily with SDS mini pig diet (Special Diets Services, Essex, UK).
After at least 2 weeks of acclimatisation two permanent central venous catheters were implanted in vena cava caudalis or cranialis in each animal. The animals were allowed 1 week recovery after the surgery, and were then used for repeated pharmacokinetic studies with a suitable wash-out period between successive dosing.
Blood samples (for example 0.8 ml) were collected in EDTA (8 mM) coated tubes and then centrifuged at 4° C. and 1942G for 10 minutes. Blood samples were collected to adequately cover the full plasma concentration-time profile of the API. In example blood samples were collected at t=predose, 0.0833, 0.25, 0.5, 0.75, 1, 1.5, 2, 3, 4, 6, 8, 10, 24, 30, 48, 72, 96, 120, 144, 168, 192, 216, 240, 264 hours after dose.
Plasma was pipetted into Micronic tubes on dry ice, and kept at −20° C. until analysed for plasma concentration of the respective FGF-1 analogue using ELISA. Individual plasma concentration-time profiles were analyzed by a non-compartmental pharmacokinetic method in Phoenix v. 6.3 (Pharsight Inc., Mountain View, Calif., USA), or other relevant software for PK analysis, and the resulting terminal half-lives (harmonic mean) determined.

[6] = presence of 0.1% HSA, read-out: EC50 (0.1% HSA)

Sequence of FGF receptor/BKL complex (Q86Z14 whole entry, one chain of several): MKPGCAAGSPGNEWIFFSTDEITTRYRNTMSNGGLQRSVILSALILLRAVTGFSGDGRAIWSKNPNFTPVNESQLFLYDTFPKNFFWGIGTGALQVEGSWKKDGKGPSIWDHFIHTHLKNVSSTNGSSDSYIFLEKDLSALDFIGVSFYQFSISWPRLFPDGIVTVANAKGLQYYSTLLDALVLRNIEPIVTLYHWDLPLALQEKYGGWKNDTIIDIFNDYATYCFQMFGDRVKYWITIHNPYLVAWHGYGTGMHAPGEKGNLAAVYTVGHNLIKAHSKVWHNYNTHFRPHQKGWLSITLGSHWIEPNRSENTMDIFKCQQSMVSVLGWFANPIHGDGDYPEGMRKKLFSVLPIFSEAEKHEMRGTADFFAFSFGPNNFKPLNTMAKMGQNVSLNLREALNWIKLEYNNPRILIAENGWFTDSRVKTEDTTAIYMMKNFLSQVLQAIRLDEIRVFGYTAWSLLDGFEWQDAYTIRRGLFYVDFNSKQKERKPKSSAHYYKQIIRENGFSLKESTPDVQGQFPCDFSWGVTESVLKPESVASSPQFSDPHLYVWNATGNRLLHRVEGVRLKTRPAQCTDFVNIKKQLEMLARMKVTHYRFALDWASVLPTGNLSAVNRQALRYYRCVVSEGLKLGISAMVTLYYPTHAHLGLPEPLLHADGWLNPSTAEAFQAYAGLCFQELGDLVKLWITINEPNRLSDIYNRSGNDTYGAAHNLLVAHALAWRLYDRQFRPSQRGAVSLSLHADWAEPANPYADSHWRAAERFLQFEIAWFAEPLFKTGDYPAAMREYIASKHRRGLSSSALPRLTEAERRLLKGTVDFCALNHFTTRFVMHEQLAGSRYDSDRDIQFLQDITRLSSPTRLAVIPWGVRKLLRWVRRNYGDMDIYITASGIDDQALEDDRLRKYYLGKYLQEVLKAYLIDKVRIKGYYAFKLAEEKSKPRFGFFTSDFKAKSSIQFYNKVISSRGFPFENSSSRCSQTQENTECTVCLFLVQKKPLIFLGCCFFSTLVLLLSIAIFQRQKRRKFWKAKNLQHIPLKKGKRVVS
Sequence of 3T3-L1 adipocytes (Q99N32 whole entry): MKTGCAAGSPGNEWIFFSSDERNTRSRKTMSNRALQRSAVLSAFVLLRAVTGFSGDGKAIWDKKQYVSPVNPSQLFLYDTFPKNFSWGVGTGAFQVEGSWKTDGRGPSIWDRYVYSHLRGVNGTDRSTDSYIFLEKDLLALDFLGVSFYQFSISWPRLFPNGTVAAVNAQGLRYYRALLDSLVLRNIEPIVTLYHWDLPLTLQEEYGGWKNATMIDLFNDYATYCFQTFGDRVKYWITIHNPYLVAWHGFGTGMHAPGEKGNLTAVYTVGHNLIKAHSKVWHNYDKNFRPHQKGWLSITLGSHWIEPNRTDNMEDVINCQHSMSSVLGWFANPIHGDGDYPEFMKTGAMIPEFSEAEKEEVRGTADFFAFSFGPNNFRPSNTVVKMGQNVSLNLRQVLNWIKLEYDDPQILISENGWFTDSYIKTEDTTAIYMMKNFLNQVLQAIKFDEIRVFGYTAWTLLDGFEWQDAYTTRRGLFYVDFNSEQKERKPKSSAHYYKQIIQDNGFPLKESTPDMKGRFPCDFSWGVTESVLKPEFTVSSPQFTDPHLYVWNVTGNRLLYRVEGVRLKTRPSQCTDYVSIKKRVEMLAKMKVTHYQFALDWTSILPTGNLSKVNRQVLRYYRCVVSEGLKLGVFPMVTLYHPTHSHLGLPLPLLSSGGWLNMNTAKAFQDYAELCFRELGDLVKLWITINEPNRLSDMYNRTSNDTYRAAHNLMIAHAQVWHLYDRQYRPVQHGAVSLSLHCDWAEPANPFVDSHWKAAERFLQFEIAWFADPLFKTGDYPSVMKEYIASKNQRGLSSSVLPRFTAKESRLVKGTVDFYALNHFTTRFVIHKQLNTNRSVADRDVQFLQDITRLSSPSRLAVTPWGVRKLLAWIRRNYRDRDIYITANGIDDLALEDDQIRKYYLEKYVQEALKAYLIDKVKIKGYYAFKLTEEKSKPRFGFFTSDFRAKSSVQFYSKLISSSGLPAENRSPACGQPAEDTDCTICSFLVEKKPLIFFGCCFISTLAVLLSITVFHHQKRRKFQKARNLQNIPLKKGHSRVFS
Sequence of 3T3-L1 adipocytes (P16092 22-822): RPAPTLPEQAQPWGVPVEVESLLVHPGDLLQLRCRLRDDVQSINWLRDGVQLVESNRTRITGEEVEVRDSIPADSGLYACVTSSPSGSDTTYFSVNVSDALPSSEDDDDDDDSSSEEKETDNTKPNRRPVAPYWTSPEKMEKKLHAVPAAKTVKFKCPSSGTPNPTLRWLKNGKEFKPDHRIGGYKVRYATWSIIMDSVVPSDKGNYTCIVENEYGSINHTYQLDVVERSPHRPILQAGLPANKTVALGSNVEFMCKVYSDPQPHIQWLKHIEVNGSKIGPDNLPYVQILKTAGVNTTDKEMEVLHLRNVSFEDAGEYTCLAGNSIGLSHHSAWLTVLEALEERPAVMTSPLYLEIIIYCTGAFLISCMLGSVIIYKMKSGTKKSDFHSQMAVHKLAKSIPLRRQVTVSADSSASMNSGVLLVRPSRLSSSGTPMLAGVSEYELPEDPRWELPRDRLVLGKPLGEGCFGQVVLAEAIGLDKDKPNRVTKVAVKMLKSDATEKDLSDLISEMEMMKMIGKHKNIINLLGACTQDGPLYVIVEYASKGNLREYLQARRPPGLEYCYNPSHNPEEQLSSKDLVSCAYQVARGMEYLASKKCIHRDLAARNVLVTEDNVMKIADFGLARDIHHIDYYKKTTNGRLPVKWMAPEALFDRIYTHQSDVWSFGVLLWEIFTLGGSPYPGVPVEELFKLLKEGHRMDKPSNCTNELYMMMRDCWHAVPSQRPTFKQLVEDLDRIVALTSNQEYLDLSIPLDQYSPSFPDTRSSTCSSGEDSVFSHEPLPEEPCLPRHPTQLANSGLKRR

Molecule | EC50 ([1]; absence of HSA, read-out: EC50) [nM] | EC50 [1, 6] [nM] | Mean Δ body weight (%) ([2]; s.c. 1 mg/kg BID for 7 days) | EC50 [3] [nM] | Glucose uptake Emax [3] [%] | Half-life mice [4] [h] | Mean Δ body weight (%) ([2]; s.c. 1 mg/kg QD for 7 days) | Half-life mini pigs [5] [h]
S{Beta-180}-[2-[2-[[2-[2-[2-[[2-[2-[2-[[(4S)-4-carboxy-4-(11-carboxyundecanoyl-amino)butanoyl]amino]ethoxy]ethoxy]acetyl]amino]ethoxy]ethoxy]acetyl]amino]-ethylamino]-2-oxoethyl]-Ala[Gln121,Leu168,Cys … (protein) HPIPDSSPLLQFGGQVRQRYLYTDDAQQTEAHLEIREDGTVGGAADQSPESLLQLKALKPGVIQILGVKTSRFLCQRPDGALYGSLHFDPEACSFRELLLEDGYNVYQSEAHGLPLHLPGQKSPHRDPAPRGPARFLPLPGLPPALPEPPGILAPQPPDVGSSDPLSLVGPSQGRSPSYCS | 7 | 4 | −2.04% | 2.7 | 87 | 1 |  | 
S{Beta-180}-[2-[2-[[2-[2-[2-[[2-[2-[2-[[(4S)-4-carboxy-4-(13-carboxytridecanoyl-amino)butanoyl]amino]ethoxy]ethoxy]acetyl]amino]ethoxy]ethoxy]acetyl]amino]-ethylamino]-2-oxoethyl]-Ala[Gln121,Leu168,Cy … (protein) HPIPDSSPLLQFGGQVRQRYLYTDDAQQTEAHLEIREDGTVGGAADQSPESLLQLKALKPGVIQILGVKTSRFLCQRPDGALYGSLHFDPEACSFRELLLEDGYNVYQSEAHGLPLHLPGQKSPHRDPAPRGPARFLPLPGLPPALPEPPGILAPQPPDVGSSDPLSLVGPSQGRSPSYCS | 6 | 6 | −3.09* % | 6.7 | 106 | 1 | 1.85% | 3
S{Beta-180}-[2-[2-[[2-[2-[2-[[2-[2-[2-[[(4S)-4-carboxy-4-(15-carboxypentadecanoyl-amino)butanoyl]amino]ethoxy]ethoxy]acetyl]amino]ethoxy]ethoxy]acetyl]amino]-ethylamino]-2-oxoethyl]-Ala[Gln121,Leu168, … (protein) HPIPDSSPLLQFGGQVRQRYLYTDDAQQTEAHLEIREDGTVGGAADQSPESLLQLKALKPGVIQILGVKTSRFLCQRPDGALYGSLHFDPEACSFRELLLEDGYNVYQSEAHGLPLHLPGQKSPHRDPAPRGPARFLPLPGLPPALPEPPGILAPQPPDVGSSDPLSLVGPSQGRSPSYCS | 4 | 6 |  | 9.1 | 98 | 3 | −4.48*** % | 23
S{Beta-180}-[2-[2-[[2-[2-[2-[[2-[2-[2-[[(4S)-4-carboxy-4-(17-carboxyheptadecanoyl-amino)butanoyl]amino]ethoxy]ethoxy]acetyl]amino]ethoxy]ethoxy]acetyl]amino]-ethylamino]-2-oxoethyl]-Ala[Gln121,Leu168, … (protein) HPIPDSSPLLQFGGQVRQRYLYTDDAQQTEAHLEIREDGTVGGAADQSPESLLQLKALKPGVIQILGVKTSRFLCQRPDGALYGSLHFDPEACSFRELLLEDGYNVYQSEAHGLPLHLPGQKSPHRDPAPRGPARFLPLPGLPPALPEPPGILAPQPPDVGSSDPLSLVGPSQGRSPSYCS | 5 | 48 |  | 32 | 109 | 12 | −10.59*** % | 70
S{Beta-181}-[2-[2-[[2-[2-[2-[[2-[2-[2-[[(4S)-4-carboxy-4-(11-carboxyundecanoyl-amino)butanoyl]amino]ethoxy]ethoxy]acetyl]amino]ethoxy]ethoxy]acetyl]amino]-ethylamino]-2-oxoethyl]-Ala[Gln121,Leu168,Cys … (protein) HPIPDSSPLLQFGGQVRQRYLYTDDAQQTEAHLEIREDGTVGGAADQSPESLLQLKALKPGVIQILGVKTSRFLCQRPDGALYGSLHFDPEACSFRELLLEDGYNVYQSEAHGLPLHLPGQKSPHRDPAPRGPARFLPLPGLPPALPEPPGILAPQPPDVGSSDPLSLVGPSQGRSPSYAC | 154 | 137 | 0.04% |  |  | 1 |  | 
S{Beta-181}-[2-[2-[[2-[2-[2-[[2-[2-[2-[[(4S)-4-carboxy-4-(13-carboxytridecanoyl-amino)butanoyl]amino]ethoxy]ethoxy]acetyl]amino]ethoxy]ethoxy]acetyl]amino]-ethylamino]-2-oxoethyl]-Ala[Gln121,Leu168,Cy … (protein) HPIPDSSPLLQFGGQVRQRYLYTDDAQQTEAHLEIREDGTVGGAADQSPESLLQLKALKPGVIQILGVKTSRFLCQRPDGALYGSLHFDPEACSFRELLLEDGYNVYQSEAHGLPLHLPGQKSPHRDPAPRGPARFLPLPGLPPALPEPPGILAPQPPDVGSSDPLSLVGPSQGRSPSYAC | 58 | 41 | −0.94% | 7.2 | 55 | 3 |  | 2
S{Beta-181}-[2-[2-[[2-[2-[2-[[2-[2-[2-[[(4S)-4-carboxy-4-(15-carboxypentadecanoyl-amino)butanoyl]amino]ethoxy]ethoxy]acetyl]amino]ethoxy]ethoxy]acetyl]amino]-ethylamino]-2-oxoethyl]-Ala[Gln121,Leu168, … (protein) HPIPDSSPLLQFGGQVRQRYLYTDDAQQTEAHLEIREDGTVGGAADQSPESLLQLKALKPGVIQILGVKTSRFLCQRPDGALYGSLHFDPEACSFRELLLEDGYNVYQSEAHGLPLHLPGQKSPHRDPAPRGPARFLPLPGLPPALPEPPGILAPQPPDVGSSDPLSLVGPSQGRSPSYAC | 55 | 72 |  | 31 | 61 | 4 | 0.18% | 25
S{Beta-181}-[2-[2-[[2-[2-[2-[[2-[2-[2-[[(4S)-4-carboxy-4-(17-carboxyheptadecanoyl-amino)butanoyl]amino]ethoxy]ethoxy]acetyl]amino]ethoxy]ethoxy]acetyl]amino]-ethylamino]-2-oxoethyl]-Ala[Gln121,Leu168, … (protein) HPIPDSSPLLQFGGQVRQRYLYTDDAQQTEAHLEIREDGTVGGAADQSPESLLQLKALKPGVIQILGVKTSRFLCQRPDGALYGSLHFDPEACSFRELLLEDGYNVYQSEAHGLPLHLPGQKSPHRDPAPRGPARFLPLPGLPPALPEPPGILAPQPPDVGSSDPLSLVGPSQGRSPSYAC | 42 | 170 |  | 56 | 73 | 14 |  | 85
